The values below come from PMC4256095.

For this assay, the target named is actin (UniProt P68135). Briefly: other fluorescence titration.

recombinant human cofilin, sequence (P23528 whole entry): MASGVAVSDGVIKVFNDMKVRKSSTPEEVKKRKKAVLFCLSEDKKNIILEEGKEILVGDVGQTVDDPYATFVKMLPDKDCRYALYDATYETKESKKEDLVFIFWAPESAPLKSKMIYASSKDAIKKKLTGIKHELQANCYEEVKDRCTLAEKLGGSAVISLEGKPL

“recombinant human cofilin (from UniProt P23528 1-166) (natural protein)” returned a binding density (νcof) at 3 µM cofilin of over 0.9.
